# Molecular target: human CD137 (4-1BB) on cells (human, UniProt Q07011 24-255)
# Assay: cell-based or functional assay
# Sequence of human CD137 (4-1BB) on cells (Q07011 24-255): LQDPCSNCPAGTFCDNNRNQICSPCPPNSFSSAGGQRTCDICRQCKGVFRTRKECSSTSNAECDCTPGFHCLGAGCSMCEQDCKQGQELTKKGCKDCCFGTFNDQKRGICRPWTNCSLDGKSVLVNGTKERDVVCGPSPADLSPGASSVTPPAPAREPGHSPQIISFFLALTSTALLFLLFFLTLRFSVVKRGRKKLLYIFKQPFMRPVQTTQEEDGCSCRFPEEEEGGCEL
Binder,"Agonistic activity compared to B, 6 ug/mL","Agonistic activity compared to B, 30 ug/mL","Agonistic activity compared to Ctrl, 6 ug/mL","Agonistic activity compared to Ctrl, 30 ug/mL","hIL-6 (pg/mL), 6 ug/mL antibody","hIL-6 (pg/mL), 30 ug/mL antibody"
"GPC3 ERY22-B (bispecific antibody, human IgG1, kappa, L234A L235A, N297A) heavy 1: DIVMTQSPLSLPVTPGEPASISCRSSQSLVHSNRNTYLHWYQQKPGQAPRLLIYKVSNRFSGVPDRFSGSGSGTDFTLKISRVEAEDVGVYYCSQNTHVPPTFGQGTKLEIKSSASTKGPSVFPLAPSSKSTSGGTAALGCLVKDYFPEPVTVSWNSGALTSGVHTFPAVLQSSGLYSLSSVVTVPSSSLGTQTYICNVNHKPSNTKVDKKVEPKSCDKTHTCPPCPAPEAAGGPSVFLFPPKPKDTLMISRTPEVTCVVVDVSHEDPEVKFNWYVDGVEVHNAKTKPREEQYASTYRVVSVLTVLHQDWLNGKEYKCKVSNKALPAPIEKTISKAKGQPREPQVCTLPPSRDELTKNQVSLWCLVKGFYPSDIAVEWESNGQPENNYKTTPPVLDSDGSFFLYSKLTVDKSRWQQGNVFSCSVMHEALHNHYTQKSLSLSPHHHHHHHH light 1: QVQLVQSGAEVKKPGASVKVSCKASGYTFTDYEMHWIRQPPGQGLEWIGAIDPKTGDTAYSQKFKGRVTLTADKSTSTAYMELSSLTSEDTAVYYCTRFYSYTYWGQGTLVTVSSASVAAPSVFIFPPSDEQLKSGTASVVCLLNNFYPREAKVQWKVDNALQSGNSQESVTEQDSKDSTYSLSSTLTLSKADYEKHKVYACEVTHQGLSSPVTKSFNRGEC heavy 2: QVQLQQWGAGLLKPSETLSLTCAVYGGSFSGYYWSWIRQSPEKGLEWIGEINHGGYVTYNPSLESRVTISVDTSKNQFSLKLSSVTAADTAVYYCARDYGPGNYDWYFDLWGRGTLVTVSSASTKGPSVFPLAPSSKSTSGGTAALGCLVKDYFPEPVTVSWNSGALTSGVHTFPAVLQSSGLYSLSSVVTVPSSSLGTQTYICNVNHKPSNTKVDKKVEPKSCDKTHTCPPCPAPEAAGGPSVFLFPPKPKDTLMISRTPEVTCVVVDVSHEDPEVKFNWYVDGVEVHNAKTKPREEQYASTYRVVSVLTVLHQDWLNGKEYKCKVSNKALPAPIEKTISKAKGQPREPQVYTLPPSRCELTKNQVSLSCAVKGFYPSDIAVEWESNGQPENNYKTTPPVLDSDGSFFLVSKLTVDKSRWQQGNVFSCSVMHEALHNHYTQKSLSLSP light 2: not shown",100%,100%,347%,380%,4520 pg/mL,4340 pg/mL
"GPC3 ERY22-dBBDu_183/L063 (bispecific antibody, human IgG1, kappa, L234A L235A, N297A) heavy 1: DIVMTQSPLSLPVTPGEPASISCRSSQSLVHSNRNTYLHWYQQKPGQAPRLLIYKVSNRFSGVPDRFSGSGSGTDFTLKISRVEAEDVGVYYCSQNTHVPPTFGQGTKLEIKSSASTKGPSVFPLAPSSKSTSGGTAALGCLVKDYFPEPVTVSWNSGALTSGVHTFPAVLQSSGLYSLSSVVTVPSSSLGTQTYICNVNHKPSNTKVDKKVEPKSCDKTHTCPPCPAPEAAGGPSVFLFPPKPKDTLMISRTPEVTCVVVDVSHEDPEVKFNWYVDGVEVHNAKTKPREEQYASTYRVVSVLTVLHQDWLNGKEYKCKVSNKALPAPIEKTISKAKGQPREPQVCTLPPSRDELTKNQVSLWCLVKGFYPSDIAVEWESNGQPENNYKTTPPVLDSDGSFFLYSKLTVDKSRWQQGNVFSCSVMHEALHNHYTQKSLSLSPHHHHHHHH light 1: QVQLVQSGAEVKKPGASVKVSCKASGYTFTDYEMHWIRQPPGQGLEWIGAIDPKTGDTAYSQKFKGRVTLTADKSTSTAYMELSSLTSEDTAVYYCTRFYSYTYWGQGTLVTVSSASVAAPSVFIFPPSDEQLKSGTASVVCLLNNFYPREAKVQWKVDNALQSGNSQESVTEQDSKDSTYSLSSTLTLSKADYEKHKVYACEVTHQGLSSPVTKSFNRGEC heavy 2: QVQLVESGGGLVQPGRSLRLSCAASGFTFSNAWMHWVRQAPGKGLEWVAQIKDKGNAYAAYYAPSVKGRFTISRDDSKNSIYLQMNSLKTEDTAVYYCHYVHYASASTVLPAFGVDAWGQGTTVTVSSASTKGPSVFPLAPSSKSTSGGTAALGCLVKDYFPEPVTVSWNSGALTSGVHTFPAVLQSSGLYSLSSVVTVPSSSLGTQTYICNVNHKPSNTKVDKKVEPKSCDKTHTCPPCPAPEAAGGPSVFLFPPKPKDTLMISRTPEVTCVVVDVSHEDPEVKFNWYVDGVEVHNAKTKPREEQYASTYRVVSVLTVLHQDWLNGKEYKCKVSNKALPAPIEKTISKAKGQPREPQVYTLPPSRCELTKNQVSLSCAVKGFYPSDIAVEWESNGQPENNYKTTPPVLDSDGSFFLVSKLTVDKSRWQQGNVFSCSVMHEALHNHYTQKSLSLSPDYKDDDDK light 2: DIVMTQSPLSLPVTPGEPASISCRSSQELVHTNRHTYLHWYQQKPGQAPRLLIYKVSNRFPGVPDRFSGSGSGTDFTLKISRVEAEDVGVYYCAQGTQVPFTFGQGTKLEIKRTVAAPSVFIFPPSDEQLKSGTASVVCLLNNFYPREAKVQWKVDNALQSGNSQESVTEQDSKDSTYSLSSTLTLSKADYEKHKVYACEVTHQGLSSPVTKSFNRGEC",-1.27%,6.51%,-4.41%,24.7%,968 pg/mL,1130 pg/mL
"GPC3 ERY22-dBBDu_183/L072 (bispecific antibody, human IgG1, kappa, L234A L235A, N297A) heavy 1: DIVMTQSPLSLPVTPGEPASISCRSSQSLVHSNRNTYLHWYQQKPGQAPRLLIYKVSNRFSGVPDRFSGSGSGTDFTLKISRVEAEDVGVYYCSQNTHVPPTFGQGTKLEIKSSASTKGPSVFPLAPSSKSTSGGTAALGCLVKDYFPEPVTVSWNSGALTSGVHTFPAVLQSSGLYSLSSVVTVPSSSLGTQTYICNVNHKPSNTKVDKKVEPKSCDKTHTCPPCPAPEAAGGPSVFLFPPKPKDTLMISRTPEVTCVVVDVSHEDPEVKFNWYVDGVEVHNAKTKPREEQYASTYRVVSVLTVLHQDWLNGKEYKCKVSNKALPAPIEKTISKAKGQPREPQVCTLPPSRDELTKNQVSLWCLVKGFYPSDIAVEWESNGQPENNYKTTPPVLDSDGSFFLYSKLTVDKSRWQQGNVFSCSVMHEALHNHYTQKSLSLSPHHHHHHHH light 1: QVQLVQSGAEVKKPGASVKVSCKASGYTFTDYEMHWIRQPPGQGLEWIGAIDPKTGDTAYSQKFKGRVTLTADKSTSTAYMELSSLTSEDTAVYYCTRFYSYTYWGQGTLVTVSSASVAAPSVFIFPPSDEQLKSGTASVVCLLNNFYPREAKVQWKVDNALQSGNSQESVTEQDSKDSTYSLSSTLTLSKADYEKHKVYACEVTHQGLSSPVTKSFNRGEC heavy 2: QVQLVESGGGLVQPGRSLRLSCAASGFTFSNAWMHWVRQAPGKGLEWVAQIKDKGNAYAAYYAPSVKGRFTISRDDSKNSIYLQMNSLKTEDTAVYYCHYVHYASASTVLPAFGVDAWGQGTTVTVSSASTKGPSVFPLAPSSKSTSGGTAALGCLVKDYFPEPVTVSWNSGALTSGVHTFPAVLQSSGLYSLSSVVTVPSSSLGTQTYICNVNHKPSNTKVDKKVEPKSCDKTHTCPPCPAPEAAGGPSVFLFPPKPKDTLMISRTPEVTCVVVDVSHEDPEVKFNWYVDGVEVHNAKTKPREEQYASTYRVVSVLTVLHQDWLNGKEYKCKVSNKALPAPIEKTISKAKGQPREPQVYTLPPSRCELTKNQVSLSCAVKGFYPSDIAVEWESNGQPENNYKTTPPVLDSDGSFFLVSKLTVDKSRWQQGNVFSCSVMHEALHNHYTQKSLSLSPDYKDDDDK light 2: DIVMTQSPLSLPVTPGEPASISCQASQELVHMNRNTYLHWYQQKPGQAPRLLIYKVSNRFPGVPDRFSGSGSGTDFTLKISRVEAEDVGVYYCAQGTSVPFTFGQGTKLEIKRTVAAPSVFIFPPSDEQLKSGTASVVCLLNNFYPREAKVQWKVDNALQSGNSQESVTEQDSKDSTYSLSSTLTLSKADYEKHKVYACEVTHQGLSSPVTKSFNRGEC",3.21%,15.8%,11.1%,59.8%,1130 pg/mL,1450 pg/mL

# Source: US20220112296A1 (Chugai, published 2022)
